From paper PMC8983731, “Structural basis for the SUMO protease activity of the atypical ubiquitin-specific protease USPL1” (Nature Communications, 2022)

Tests used:
[1] = biological target: T1, ∆14-SUMO2 precursor C48S/G93C with dehydroalanine at position 93 (SUMO2-DHA) (human, UniProt P61956 15-95, C48S | G93C, dehydroalanine (DHA) at position 93 (made from Cys93 of G93C with 2,5-dibromohexanediamide)); experiment: cross-linking; active site probe assay: protease at 2 μM with SUMO2-DHA at 6 μM, 30 °C, 3 h; formation of the covalent thioether adduct; USPL1 wild type and mutants for 3 h; settings: both partners purified
T1 construct: SUMO2 precursor, human, with the immature C-terminal Val-Tyr after the di-glycine motif; Cys93 is turned into dehydroalanine, an electrophilic trap that reacts with the active site cysteine of the protease (Cys236 of USPL1); also called SUMO2 DHA precursor; ∆14-Sumo2 DHA; source: E. coli Rosetta (DE3), purified (Ni Sepharose, Resource Q); treated with 2,5-dibromohexanediamide and purified again …
T1 sequence (P61956 15-95 C48S/G93C): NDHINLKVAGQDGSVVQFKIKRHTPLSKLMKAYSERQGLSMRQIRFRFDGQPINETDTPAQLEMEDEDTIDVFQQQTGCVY

[2] = biological target: T1, ∆14-SUMO2 precursor C48S/G93C with …; experiment: cell-based or functional assay

B1: USPL1 catalytic domain Y451F (enzyme, human, UniProt Q5W0Q7 212-514, looked up)
chain: MPLESKCTSFPQALCVQWKNAYALCWLDCILSALVHSEELKNTVTGLCSKEESIFWRLLTKYNQANTLLYTSQLSGVKDGDCKKLTSEIFAEIETCLNEVRDEIFISLQPQLRCTLGDMESPVFAFPLLLKLETHIEKLFLYSFSWDFECSQCGHQYQNRHMKSLVTFTNVIPEWHPLNAAHFGPCNNCNSKSQIRKMVLEKVSPIFMLHFVEGLPQNDLQHYAFHFEGCLYQITSVIQFRANNHFITWILDADGSWLECDDLKGPCSERHKKFEVPASEIHIVIWERKISQVTDKEAACLPL
notes: USPL1, human, catalytic domain Met212-Leu514, point mutant; Made by site-directed mutagenesis of pET28a-USPL1CD; source: E. coli Rosetta (DE3), purified (Ni Sepharose, Resource Q anion exchange); not shown: His tag (from the vector pET28a)
- fold decrease of binding against wild type [1]: 4 fold
- proteolytic activity against SUMO2 substrates, fold decrease against wild type [2]: 4 fold
